Source: patent US20240076386A1 (Pfizer, published 2024)

T1: soluble recombinant human E-selectin (R & D Systems, ADP1) (human, UniProt P16581 22-556)
T1 sequence (looked up): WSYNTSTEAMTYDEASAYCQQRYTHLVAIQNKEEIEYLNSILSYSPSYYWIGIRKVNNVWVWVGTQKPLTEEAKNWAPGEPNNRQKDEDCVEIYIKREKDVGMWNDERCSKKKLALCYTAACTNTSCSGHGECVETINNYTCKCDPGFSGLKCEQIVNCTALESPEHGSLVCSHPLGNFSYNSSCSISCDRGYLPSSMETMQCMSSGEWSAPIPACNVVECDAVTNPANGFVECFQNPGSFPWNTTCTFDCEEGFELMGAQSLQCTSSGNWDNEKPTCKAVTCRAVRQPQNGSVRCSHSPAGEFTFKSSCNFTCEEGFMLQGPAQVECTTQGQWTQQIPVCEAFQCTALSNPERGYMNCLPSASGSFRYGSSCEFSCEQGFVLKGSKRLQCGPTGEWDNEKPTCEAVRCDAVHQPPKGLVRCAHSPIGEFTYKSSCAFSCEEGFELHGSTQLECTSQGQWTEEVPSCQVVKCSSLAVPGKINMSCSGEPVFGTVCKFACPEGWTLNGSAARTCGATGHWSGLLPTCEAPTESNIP

T2: human E-selectin extracellular domain with 10 His purification tail (human, UniProt P16581 22-556)
T2 construct: also called soluable human E-selectin extracellular domain; rhE-Selectin
T2 sequence: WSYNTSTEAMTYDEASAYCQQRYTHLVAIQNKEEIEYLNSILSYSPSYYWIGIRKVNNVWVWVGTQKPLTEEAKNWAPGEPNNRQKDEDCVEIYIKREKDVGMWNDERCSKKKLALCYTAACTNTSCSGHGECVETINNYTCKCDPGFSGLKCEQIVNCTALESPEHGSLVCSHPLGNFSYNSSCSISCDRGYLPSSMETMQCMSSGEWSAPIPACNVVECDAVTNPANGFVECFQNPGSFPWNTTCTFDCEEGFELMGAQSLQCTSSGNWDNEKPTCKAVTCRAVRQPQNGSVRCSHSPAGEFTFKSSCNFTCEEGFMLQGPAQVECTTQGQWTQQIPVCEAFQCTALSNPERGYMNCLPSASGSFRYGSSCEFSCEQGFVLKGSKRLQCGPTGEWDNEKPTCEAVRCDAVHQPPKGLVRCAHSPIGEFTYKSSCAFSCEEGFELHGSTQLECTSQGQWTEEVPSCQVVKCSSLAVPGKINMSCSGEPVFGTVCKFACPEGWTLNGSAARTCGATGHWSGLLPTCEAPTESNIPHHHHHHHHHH

T3: mouse E-selectin extracellular domain with 10 His purification tail (mouse, UniProt Q00690 22-557)
T3 construct: also called soluable mouse E-selectin extracellular domain; muE-Selctin
T3 sequence: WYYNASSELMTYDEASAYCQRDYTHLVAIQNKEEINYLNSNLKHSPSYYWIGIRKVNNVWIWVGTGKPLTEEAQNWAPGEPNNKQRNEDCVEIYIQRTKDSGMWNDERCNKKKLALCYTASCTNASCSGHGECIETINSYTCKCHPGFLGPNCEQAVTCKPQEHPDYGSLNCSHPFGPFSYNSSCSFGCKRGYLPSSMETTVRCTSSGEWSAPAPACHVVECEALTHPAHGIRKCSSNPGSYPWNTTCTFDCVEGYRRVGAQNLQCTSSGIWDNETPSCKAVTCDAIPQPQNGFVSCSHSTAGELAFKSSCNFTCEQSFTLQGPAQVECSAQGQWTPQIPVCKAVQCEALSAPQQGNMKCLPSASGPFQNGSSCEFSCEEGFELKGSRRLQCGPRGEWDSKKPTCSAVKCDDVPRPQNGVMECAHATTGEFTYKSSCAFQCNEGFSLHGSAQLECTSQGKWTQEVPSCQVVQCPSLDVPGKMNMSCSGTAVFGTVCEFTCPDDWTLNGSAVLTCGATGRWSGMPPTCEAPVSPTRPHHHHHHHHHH


Key:
[1] = molecular target: T1, soluble recombinant human E-selectin (R …); assay: cell-based or functional assay
[2] = molecular target: T2, human E-selectin extracellular domain …; assay: AlphaLISA competition vs sialyl Lewis A-PAA-biotin
Procedure: (§1) The neutralization ability of anti-E-selectin antibodies was measured in an AlphaLISA homogenous competition assay. […] This was incubated at room temperature for 15 minutes, followed by addition of 1.4 μL of human, mouse or cynomolgus monkey E-selectin added to a final concentration of 7 nM. This was again incubated at room temperature for 15 minutes. To this, 1.4 μL AlphaLISA beads was added (Ni-donor/SA-acceptor) for a final assay concentration of 10 μg/mL. This was incubated in the dark at room temperate for at least 10 hours. The plates were then read using the AlphaLISA protocol (Envision).

[3] = molecular target: T3, mouse E-selectin extracellular domain …; assay: AlphaLISA competition vs sialyl Lewis A-PAA-biotin
Procedure: as §1

[4] = molecular target: T2, human E-selectin extracellular domain …; assay: SPR, antibody captured, E-selectin analyte
Procedure: To characterize binding of antibodies to human, cynomolgus monkey, and mouse E-selectin, an antibody was diluted to 0.5 μg/mL in HBS-EP+ and captured by the anti-human IgG immobilized on flow cells 2, 3 and 4 for 30 seconds to 1 minute at a flow rate of 10 μL/minute to achieve a capture level of 70 to 300 RU. Flow cell 1 was used as a reference surface. […] HBS-EP+ buffer cycles collected for each captured antibody were used for double-referencing (Myszka D G. J. Mol. Recognition 1999; 12(5):279-84). At the end of each cycle, the entire anti-IgG surface was regenerated by a 30 second pulse of 3 M MgCl₂ and a 30 second pulse of ionic buffer (1.83 M MgCl₂, 0.92 M Urea, 1.83 M Guanidine HCl, pH 7.4) (Andersson K. Analy. Chem. 1999; 71(13): 2475-81). Kinetic assays were conducted at 25° C. at a collection rate of 10 Hertz (Hz) on a BIAcore™ T200 instrument (GE Healthcare). Rate constants and affinities were determined by fitting the data to a 1:1 binding model in BIAcore™ T200 Evaluation software version 3.0 (GE Healthcare).

Row | Binder | neutralization of HL-60 cell binding under physiological flow to soluble human E-selectin protein IC50 (nM) [1] [nM] | EC50 [2] [µM] | EC50 [3] [µM] | Kd [4] [µM] | koff [4] [s⁻¹] | kon [4] [M⁻¹ s⁻¹] | t½ [4] [s]
1 | anti-E-selectin antibody 0158 chimera (antibody, human IgG1, kappa, V domains shown, rat VH/VL on effector-null human IgG1 and human kappa) VH: QVQLKESGPGLVQPSETLSLTCTVSGFSISTYNVHWLRQPPGKGLEWMGMMWSGGSPDYNSALKSRLSISRDTSKNQVFLKMNSLQSEDTTTYYCARWGGGFDYWGQGVMVTVSS VL: DIVLTQSPTTLSVTPGETVSLSCRASHSIGTNLHWYQQKTNESPRLLIKFTSQSISGIPSRFSASGSGTDFTLNINNVEFDDVSSYFCQQTQSWPLTFGSGTKLEIKR | 17.9 | < 0.001 | > 0.133 | 0.0216 | 0.00175 | 81000 | 397
2 | anti-E-selectin antibody 0039 chimera (antibody, human IgG1, kappa, V domains shown, rat VH/VL on effector-null human IgG1 and human kappa) VH: QVQLKETGPGLVQPTQTLSITCTVSGFSLTGYYMQWVRQTPGKGLEWMGFIRSSGSTEYNSEFKSRLSISRDTSKNQVFLKMNSLKTEDTGVYYCARCPYKYSSFVYVGVMDAWGQGAPVTVSS VL: EIVMTQSPTSMSTSIGERVTLNCKASQTVGINVDWYQQTPGQPPKLLIYGASNRHTGVPDRFTGSGFGRDFTLTISNVEAEDLAVYCCLQYGSIPHTFGPGTKLELKR | 265 | < 0.001 | > 0.133 | 0.068 | 0.00421 | 64200 | 174
3 | anti-E-selectin antibody 0180 chimera (antibody, human IgG1, kappa, V domains shown, rat VH/VL on effector-null human IgG1 and human kappa) VH: EVQLQQSGAELGKPGTSVKLSCKVSGYKIRSSYMHWVNQRPGKGLEWIGRIDPANGNTIYGDKFKSKATLTSDTSSNTAYIQLSQLKSDDTAIYFCAIDIGTTFDYWGQGVMVTVSS VL: DIQMTQSPSFLSASVGDRVTINCKASQHINRYLNWYQQKLGEAPKLLIYDANNLQTGIPSRFSGSGSGTDFTLTISSLQPEDVATYFCLQHNSWPNTFGAGTKLELKR | 225 | < 0.001 | > 0.133 | 2.94 | 0.666 | 262000 | 1.05
4 | anti-E-selectin antibody 0164 chimera (antibody, human IgG1, kappa, V domains shown, rat VH/VL on effector-null human IgG1 and human kappa) VH: EVQLQQSGAEFGKPGTSVKLSCKVSGYNIRSSYMHWVNQRPGKGLEWIGRIDPANGNTIYAEKFKIKAILTADSSSNTAYMQLSQLKSDDTAIYFCAMDLYSTSEYWGQGVMVTVSS VL: DIQMTQSPSFLSASVGDRVTINCKTSQNINRYLNWYQQKLGEAPKLLIYNANSLQTGIPSRFSASGSGTDFTLTINSLQPEDVATYFCLQDNSWPLTFGSGTKLEIKR | 1.7 | < 0.001 | > 0.133 | 0.0544 | 0.0113 | 207000 | 61.6
5 | anti-E-selectin antibody 0159 chimera (antibody, human IgG1, kappa, V domains shown, rat VH/VL on effector-null human IgG1 and human kappa) VH: EVQLQQSGAELGKPGTSVKLSCKVSGYNIRSTYMHWVSQRPGKGLEWIGRIDPANGNTIYAEKFKRKATLTADTSSNTAYMQLSQLKSDDRAIYFCAMEVRVSFEYWGQGVMVTVSS VL: DIQMTQSPSFLSASVGDRVTINCKASQNINKYLDWYQQKLGEGPKLLIYYTNNLHTGIPSRFSGSGSGTDFTLTISSLQPEDVATYFCLQHDSGYTFGAGTKLELKR | 21 | < 0.001 | > 0.133 | 0.324 | 0.0371 | 115000 | 18.7
6 | anti-E-selectin antibody 0170 chimera (antibody, human IgG1, kappa, V domains shown, rat VH/VL on effector-null human IgG1 and human kappa) VH: EVQLQQSGAELGKPGTSVKLSCKVSGYSIRSTYMHWVNQRPGKGLEWVGRIDPANGNTIYAERFKNKATLTADTSSNTAYMQLSQLKSDDTAIYFCAVEILGIFDYWGQGVMVTVSS VL: DIQMTQSPSFLSASVGDRVTINCKASQNIDKYLDWYQQKLGEAPKLLMYNTNSLHTGIPSRFSGSGSGTDFTLTISSLQPEDVATYFCLQHNSGYTFGAGTKLELKR | 74.2 | < 0.001 | > 0.133 | 0.629 | 0.0549 | 87400 | 12.6
